# Results taken from patent publication US20060246519A1 (UTI LIMITED PARTNERSHIP, published 2006).
# B1: streptavidin mutein M4 (T76R, V125R, V55T, L109T), secreted by B. subtilis (other)
# chain: DPSKDSKAQVSAAEAGITGTWYNQLGSTFIVTAGADGALTGTYESAVGNAESRYTLTGRYDSAPATDGSGTALGWRVAWKNNYRNAHSATTWSGQYVGGAEARINTQWTLTSGTTEANAWKSTLRGHDTFTKVKPSAASIDAAKKAGVNNGNPLDAVQQ
# notes: Monomeric in solution; also called M4 mutein
# Legend:
# [1] = target: T1, biotin-conjugated bovine serum albumin (bovine, UniProt P02769 25-607); assay: SPR (BIAcoreX), biotin-conjugated BSA immobilised on CM5 chip, mutein in solution
# T1 construct: Immobilised on a CM5 sensor chip; also called biotinylated bovine serum albumin (BSA)
# T1 sequence (P02769 25-607 limits assumed): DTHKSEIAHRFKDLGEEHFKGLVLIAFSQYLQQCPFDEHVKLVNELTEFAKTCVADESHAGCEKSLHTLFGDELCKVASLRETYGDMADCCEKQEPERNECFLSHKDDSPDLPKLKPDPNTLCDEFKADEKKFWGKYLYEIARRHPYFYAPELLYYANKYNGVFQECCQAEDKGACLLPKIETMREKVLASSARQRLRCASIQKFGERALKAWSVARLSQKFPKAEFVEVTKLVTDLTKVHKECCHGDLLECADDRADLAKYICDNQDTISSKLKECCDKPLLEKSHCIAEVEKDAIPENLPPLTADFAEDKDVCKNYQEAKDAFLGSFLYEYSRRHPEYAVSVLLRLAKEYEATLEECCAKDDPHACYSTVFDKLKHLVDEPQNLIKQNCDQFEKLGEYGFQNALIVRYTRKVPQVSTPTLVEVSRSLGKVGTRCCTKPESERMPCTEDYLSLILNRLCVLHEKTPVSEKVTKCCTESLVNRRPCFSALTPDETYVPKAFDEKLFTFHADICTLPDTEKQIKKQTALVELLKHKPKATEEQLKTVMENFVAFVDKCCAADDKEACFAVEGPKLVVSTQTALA
# Description: (§1) The kinetic parameters (both on- and off-rates for interaction with biotin) of streptavidin muteins were determined in real time using the surface plasmon resonance based BIAcoreX biosensor. Biotin-conjugated bovine serum albumin immobilized on CM5 sensor chip was used to study the reversibility of biotin binding (Qureshi, 2001).
# [2] = target: the molecule itself; assay: SDS-PAGE/Western blot of non-boiled culture supernatant; self-association of subunits
# [3] = target: T1, biotin-conjugated bovine serum albumin; assay: SPR (BIAcoreX), biotin-conjugated BSA immobilised on CM5 chip, mutein in solution; Kd = kd/ka
# Description: as §1
# [4] = target: the molecule itself; assay: SDS-PAGE/Western blot of non-boiled culture supernatant, 20 uM biotin in medium; self-association of subunits
# Description: FIG. 3: Western blot analysis of cell culture supernatants from B. subtilis strains producing streptavidin muteins carrying a single mutation. 15 μl of non-boiled sample of culture supernatant was loaded to each lane. Samples on the left set were collected from B. subtilis strains cultured in super-rich medium without additional supplement of biotin. Samples on the right set were collected from B. subtilis strains cultured in super-rich medium with additional supplementation of biotin (20 μM). The blot was probed with polyclonal antibodies against streptavidin and developed using 4-chloro-1-napthol (Bio-Rad) as the colour development agent. […] M, molecular weight markers; wt, wild type streptavidin.
# FIG. 4: Analysis of culture supernatants from B. subtilis strains producing streptavidin muteins carrying different combinations of mutations. All these strains were cultivated in super-rich medium supplemented with biotin (20 μM). The 15 μl of non-boiled samples of culture supernatants were loaded. FIG. 4A. Coomassie blue stained SDS-polyacrylamide gel. Bands corresponding to tetrameric and monomeric streptavidin are marked by an asterisk and an arrowhead, respectively. FIG. 4B. Western blot probed with polyclonal antibodies against streptavidin. […]
binder,measurement,setting,value
B1,koff,[1],0.00339 s⁻¹
same,kon,[1],18000 M⁻¹ s⁻¹
same,"% tetramer, no additional biotin",[2],0%
same,Kd,[3],187 nM
same,"% tetramer, with additional biotin",[4],0%
